Target: HB36.4 I58E displayed on the yeast surface
Test: flow cytometry on cells

A/Vietnam/1203/2004 (H5N1) hemagglutinin, biotinylated (natural protein)
net change in specificity (H1 over H5) against HB36.4: > 30 fold
